# Measurements from US20120204273A1, “COMPOSITIONS RELATING TO A PHOSPHOPROTEIN AND METHODS OF USE” (SANFORD-BURNHAM MEDICAL RESEARCH INSTITUTE, priority 2010, published 2012).
# Changes are numbered by the printed parent chain.
# B1: HA-CDP138-WT: full-length human KIAA0528 (CDP138) tagged with 3HA epitope at the N-terminus, pCMV5 vector (protein)
# chain: MPGKLKVKIVAGRHLPVMDRASDLTDAFVEVKFGNTTFKTDVYLKSLNPQWNSEWFKFEVDDEDLQDEPLQITVLDHDTYSANDAIGKVYIDIDPLLYSEAATVISGWFPIYDTIHGIRGEINVVVKVDLFNDLNRFRQSSCGVKFFCTTSIPKCYRAVIIHGFVEELVVNEDPEYQWIDRIRTPRASNEARQRLISLMSGELQRKIGLKVLEMRGNAVVGYLQCFDLEGESGLVVRAIGTACTLDKLSSPAAFLPACNSPSKEMKEIPFNEDPNPNTHSSGPSTPLKNQTYSFSPSKSYSRQSSSSDTDLSLTPKTGMGSGSAGKEGGPFKALLRQQTQSALEQREFPFFTLTAFPPGFLVHVGGVVSARSVKLLDRIHNPDEPETRDAWWAEIRQEIKSHAKALGCHAVVGYSESTSICEEVCILSASGTAAVLNPRFLQDGTVEGCLEQRLEENLPTRCGFCHIPYDELNMPFPAHLTYCYNCRKQKVPDVLFTTIDLPTDATVIGKGCLIQARLCRLKKKAQAEANATAISNLLPFMEYEVHTQLMNKLKLKGMNALFGLRIQITVGENMLMGLASATGVYLAALPTPGGIQIAGKTPNDGSYEQHISHMQKKINDTIAKNKELYEINPPEISEEIIGSPIPEPRQRSRLLRSQSESSDEVTELDLSHGKKDAFVLEIDDTDAMEDVHSLLTDVPPPSGFYSCNTEIMPGINNWTSEIQMFTSVRVIRLSSLNLTNQALNKNFNDLCENLLKSLYFKLRSMIPCCLCHVNFTVSLPEDELIQVTVTAVAITFDKNQALQTTKTPVEKSLQRASTDNEELLQFPLELCSDSLPSHPFPPAKAMTVEKASPVGDGNFRNRSAPPCANSTVGVVKMTPLSFIPGAKITKYLGIINMFFIRETTSLREEGGVSGFLHAFIAEVFAMVRAHVAALGGNAVVSYIMKQCVFMENPNKNQAQCLINVSGDAVVFVRESDLEVVSSQQPTTNCQSSCTEGEVTT
# B2: CDP138-WT: wild-type CDP138 vector transfected into PC12 cells (protein, UniProt Q86YS7 1-1000, looked up)
# C2 domain-containing protein 5: B1 chain
# B3: CDP138-5DA: dominant negative mutant CDP138-5DA vector transfected into PC12 cells (protein, UniProt Q86YS7 1-1000, looked up, variant D19A D26A D76A D78A D84A)
# C2 domain-containing protein 5: B1 chain with D19A, D26A, D76A, D78A, D84A
# Legend:
# 3T3-L1 adipocytes [1] = test: GSV-PM fusion in live adipocytes (IRAP-pHluorin, TIRF microscopy); format: cell-based, mouse; details: Akti1/2 5 μM for 1 h, insulin 100 nM 30 min
# Text: FIG. 3, panels A-C, show knockdown of CDP138 in live 3T3-L1 adipocytes inhibits insulin-stimulated membrane fusion between GLUT4 storage vesicles (GSV) and the PM, but not GLUT4-EGFP trafficking to the TIRF zone. (A): Schematic illustration of the molecular probes and TIRF microcopy-based live cell assays for GLUT4 trafficking and GSV-PM fusion. (B) and (C): The effect of CDP138 knockdown on insulin-stimulated IRAP-pHluorin insertion into the PM (B), and accumulation of GLUT4-EGFP in the TIRF zone (C). Adipocytes (day 4) were transfected by electroporation with plasmid DNA encoding IRAP-pHluorin or GLUT4-EGFP, together with either the scrambled siRNA or smartPool siRNA against mouse 5730419I09Rik. Cells were reseeded on glass-bottomed dishes for 72 hrs, serum starved for 2 hr then stimulated with 100 nM insulin for 30 min. Analyses were performed in a cell warmer adapted for a Nikon TiE with fully motorized combined dual laser (488 and 561 nm). Images were acquired every 3 min immediately after addition of insulin and analyzed as described in the Supplementary Experimental Procedures. Perfect focus system and multiple points capture program (NIS Element) were used to acquire images from multiple positively transfected cells at each time point. […]
# Total Internal Reflection Fluorescence (TIRF) Microscopy: Nikon (Melville, N.Y.) TI-TIRF-E, which was based on the objective lens method, was used to perform all the TIRF experiments. […] Positively transfected adipocytes were identified, and the insulin-stimulated IRAP vesicle-PM fusion events or GLUT4-EGFP trafficking to the TIRF zone were recorded every 3 min for a 30 min period using Nikon Eclipse-Ti TIRF microscope. […]
# (§1) Image Analysis and Quantification: TIRF and wide field fluorescence microscopy were performed using a Nikon inverted microscope (Melville, N.Y.) with a cooled charge-coupled device camera. […]
# 3T3-L1 adipocytes [2] = test: myc-GLUT4-GFP translocation to the cell surface; format: cell-based, mouse; details: for effect on insulin-stimulated myc-GLUT4-GFP translocation to cell surface: fixed cells, Akti1/2 50 μM for 1 hr, insulin 100 nM 30 min
# Experimental: FIG. 2, panels A-C show knockdown of CDP138 in 3T3-L1 adipocytes inhibits insulin-stimulated glucose transport (A) and myc-GLUT4-GFP translocation (B), but not endogenous GLUT4 movement to the periphery detected in TIRF zone (C). (A): Differentiated adipocytes at day 5 were transfected with siRNAs against mouse 5730419I09Rik or the scrambled siRNA (Scr) as described earlier (Jiang et al., 2003) for 60 hrs, then serum starved overnight. Cells were then treated with or without insulin (1 nM and 100 nM) for 30 min for the glucose uptake assay, or 15 min for immunoblotting of CDP138, pAkt, Akt and β-actin. Glucose transport data are presented as mean±SD of 4 independent experiments. *P<0.05 vs Scr Insulin (1 nM) group; **P<0.01 vs Scr Insulin (100 nM) group. (B): Day 5 adipocytes were transfected with siRNAs and myc-GLUT4-GFP for 60 hrs and then serum starved overnight. Cells were then treated with insulin (1 nM) for 20 min. Cell surface Myc-GLUT4-GFP was detected with anti-myc monoclonal Ab (9E10) and Alexa Fluor 568-labeled goat anti-mouse IgG in non-permeablized cells. The Myc signal and GFP signal were quantified as previously described (Jiang et al., 2002). Data presented are representative microscopic images and mean±SD of about 160 GFP-positive cells in each group from three independent experiments. **P<0.01 vs Scr Insulin (1 nM) group. […] GLUT4 was detected with a goat anti-GLUT4 Ab and Alexa Fluor 488-conjugated donkey anti-goat Ab in permeabilized cells. Top and middle panels show 100 nm TIRF zone and representative GLUT4 TIRFM images, respectively. Data are mean±SD of 3 independent experiments. **P<0.01 vs Scr Insulin groups.
# GLUT4 translocation detection with wide field fluorescence and TIRF microscopy: Both wide field and TIRF microscopy were used to detect myc-GLUT4-GFP translocation to the cell surface as previously described (Jiang et al., 2002) and herein.
# To test the effect of RNAi-induced gene specific knockdown of CDP138 or overexpression of CDP138 mutants on GLUT4 translocation, siRNAs or CDP138 constructs were transfected into adipocytes together with myc-GLUT4-GFP by electroporation as previously described (Jiang et al, 2003). […] Cells were washed with cold PBS, fixed with 4% formaldehyde and immunostained. Briefly, for siRNA study, the cell surface Myc-GLUT4-GFP was visualized with mouse anti-Myc Ab (9E10) and AlexaFluoro568-labeled goat anti-mouse secondary Ab (Invitrogen) in PBS containing 1% FBS. After washing, the coverslip were mounted with Prolong antifade reagent (Invitrogen, Eugene Oreg.). Fluorescence microscopy was carried as described below. Then, images were acquired with wide field microscopy as described below. For the study with overexpressed HAtagged CDP138 constructs, the cell surface Myc-GLUT4-GFP was visualized with rabbit anti-Myc Ab (Cell signaling, Inc) and AlexaFluoro568-labeled goat anti-rabbit secondary Ab (InVitrogen) in PBS containing 1% FBS. Cells were further permeabilized with PSB containing 0.5% Tween-20, and HA-tagged protein was detected with a mouse anti-HA epitope primary Ab followed by AlexaFluoro-350-labelled goat anti-mouse IgG. Insulin-induced myc-GLUT4 accumulation (AlexaFluoro-568 signal) within the evanescence excitation field (100 nm from dorsal membrane) in transfected adipocytes was measured with a Nikon Eclipse-Ti microscope equipped with a CoolSNAP HQ2 camera and laser scanning TIRF capacity. Total GLUT4-GFP signals and […] Alexa Fluoro-350 signals were acquired with wide field imaging to identify double-transfected cells. The ratio of myc-GLUT4 signal in the TIRF zone to the total Epi-GFP signal in wide field was used as a measure of GLUT4 translocation to the cell surface.
# as §1
# CHO-T cells = test: Cell division of CHO-T cells overexpressing HA-CDP138; format: cell-based
# Text: Large cells bodies with multiple nuclei were formed in HA-tagged CDP138 positive CHO-T cells.
# HA-CDP138 positive cell is 3-5 times bigger than HA-negative cells (FIG. 14).
# PC12 cells [3] = test: NGF-induced neurite outgrowth in PC12 cells; format: cell-based
# Experimental: FIG. 13, panels A and B, show the expression pattern of CDP138 in various tissues and the effects of overexpressed wild-type and mutant CDP138 in neuronal growth factor (NGF)-induced neurite outgrowth in PC12 cells. A: CDP138 is highly expressed in the brain and distributed in the neurite and synapse of neuronal cells. 30 μg of total protein was assayed for all tissues, except only 15 μg of total protein from brain tissue was assayed in the immunoblotting of panel A. Exemplary protein distribution of CDP138-mCherry in a PC12 cell is also shown. B: Overexpressed CDP138-WT enhances neurite growth, whereas the CDP138-5DA mutant had the opposite effect.
# (§2) In addition to counting the total number of cells that survived, the number of big surviving differentiated neuronal cells were also assessed following 24 hours of starvation. […] This was a 50% increase in the number of big differentiated cells.
# PC12 cells [4] = test: Survival of differentiated PC12 neuronal cells under serum starvation; format: cell-based; details: for cell death / survival after 24 hours of starvation / cell death within 14 hours of starvation: transfected 24 h, NGF 24 h, serum starved
# Experimental: Cells were serum starved for 6 hours (6 H), 14 hours (14 H) or 24 hours (24 H) before counting the number of cells in two wells.
# Cells were serum starved for 24 hours before counting the number of bid surviving differentiated neuronal cells in two wells.
# In order to determine the affects of CDP138 of neuronal cell survival, PC12 cells were transfected with wild-type CDP138-WT vector, dominant negative mutant CDP138-5DA vector or an empty vector for 24 h followed by adding NGF (neuron growth factor) for 24 h. Then cells were serum starved for 6 hours, 14 hour, and 24 hour before counting cell number in 2 wells.
# as §2
molecule,measurement,setting,value
"O=c1[nH]c2ccccc2n1C1CCN(Cc2ccc(-c3nc4cc5nc[nH]c5cc4nc3-c3ccccc3)cc2)CC1 [Akti, reference compound]",effect on insulin-induced GSV-PM membrane fusion,3T3-L1 adipocytes [1],significantly inhibited
same,effect on insulin-induced GSV-PM membrane fusion,3T3-L1 adipocytes [1]; listed as Akti1/2,blocks
same,effect on insulin-stimulated myc-GLUT4-GFP translocation to cell surface,3T3-L1 adipocytes [2],significantly inhibited
same,effect on insulin-stimulated myc-GLUT4-GFP translocation to cell surface,3T3-L1 adipocytes [2]; listed as Akti1/2,blocks
B1,effect of overexpression on insulin-stimulated myc-GLUT4-GFP translocation (TIRF myc / Epi GFP),"3T3-L1 adipocytes [2]; insulin 100 nM, 30 min",did not significantly alter
same,size of positive cells relative to HA-negative cells,CHO-T cells,3-5 times
same,positive cells with big multiple nuclei,CHO-T cells; three different experiments,about 24.6%
B2,"increase in cell body length (fold over cell body length, NGF-induced neurite outgrowth)",PC12 cells [3],~4 fold
same,increase in the number of big differentiated cells over empty vector,PC12 cells [4]; 24 hours of starvation,50%
same,number of big differentiated neuronal cells per well,PC12 cells [4]; 24 hours of starvation,approximately 1650 per well
same,cell death / survival after 24 hours of starvation,PC12 cells [4],continued to survive
same,cell death within 14 hours of starvation,PC12 cells [4],no appreciable cell death
B3,"increase in cell body length (fold over cell body length, NGF-induced neurite outgrowth)",PC12 cells [3],approximately 1 fold
same,number of big differentiated neuronal cells per well,PC12 cells [4]; 24 hours of starvation,did not form any
same,cell death / survival after 24 hours of starvation,PC12 cells [4],the highest amount of cell death
same,cell death within 14 hours of starvation,PC12 cells [4],significant cell death
